Laboratory results: PMC2856799

Key:
[1] = target: Insulin (Pekar and Frank 1972 preparation); assay: Sedimentation equilibrium; conditions: pH 7.0; 24.5 °C; ionic strength 0.1; not stated (pH 7.0); scale: log10; cited from earlier work
[2] = target: Insulin (zinc-free) (UniProt P01317); assay: Composition-gradient static light scattering; conditions: pH 10.0, 25 °C, 0.095 M NaCl, 5.3 mM glycine, 3.2 mM NaOH, scale: log10
UniProt P01317, sequence (P01317 whole entry): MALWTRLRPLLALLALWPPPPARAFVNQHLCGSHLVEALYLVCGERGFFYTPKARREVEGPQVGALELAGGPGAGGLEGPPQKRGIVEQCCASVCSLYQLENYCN

For “Insulin (Pekar and Frank 1972 preparation)”, the log10(K6a) (stepwise hexamer addition) [1] is given as 3.69, the log10(K12) (monomer-dimer) [1] is given as 5.64 and the log10(K26) (3 dimers -> hexamer) [1] is given as 8.36. For the same substance, the log10(Ka) (isodesmic) [1] was 4.43.
For Insulin (zinc-free), the log10(Ka) (enhanced isodesmic; monomer addition to dimer and higher oligomers) [2] was 3.82.
